Reference: the RNAGym collection of RNA variant scans (doi:10.1093/molbev/msab373)

B1: Azoarcus group I ribozyme (parent)
chain: GUGCCUUGCGCCGGGAAACCACGCAAGGGAUGGUGUCAAAUUCGGCGAAACCUAAGCGCCCGCCCGGGCGUAUGGCAACGCCGAGCCAAGCUUCGGCGCCUGCGCCGAUGAAGGUGUAGAGACUAGACGGCACCCACCUAAGGCAAACGCUAUGGUGAAGGCAUAGUCCAGGGAGUGGCGAAAGUCACACAAACCGG

Variants of: B1
Assay: reverse-splicing fitness (ratio to wild type); higher = more active; in vitro selection; Mg2+ level not given
Summary of the method: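 An in vitro group I ribozyme library with randomized positions was T7-transcribed and gel-purified. In triplicate, 10 pmol RNA in EPPS pH 7.5 was reacted with 50 pmoles of a 30-nt RNA substrate for 1 h at 37 °C across several added MgCl2 levels (1–48 mM), then stopped with EDTA. Products were reverse transcribed from a substrate-complementary primer, PCR-amplified and sequenced (HiSeq 4000). Fitness is a variant's read proportion after selection over that before, normalised to wild type.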

Variant | reverse-splicing fitness
C82A A111C A120U A145U C150U C169A | 0.00321
C82A A111C A120U A145U C150U C169U | 0.00409
C82A A111C A120U A145U C150U C169G | 0.00466
C82A A111C A145C C169G U176C | 0.0216
C82A A111C A145C C169G U176A | 0.0269
C82A A111C A145C C169G U176G | 0.00783
C82A A111C A120U A145G C169U U176C | 0.00417
C82A A111C A120U A145G C169U U176G | 0.00234
C82A A111C A120U A145G C169U U176A | 0.00527
C82A A111C A145C | 0.212
C82A A111C A145G | 0.258
C82A A111C A145C C150U C169A | 0.00801
C82A A111C A145C C150U C169U | 0.0121
C82A A111C A145C C150U C169G | 0.0076
C82A A111C A120U A145C C150U C169A U176A | 0.00309
C82A A111C A120U A145C C150U C169A U176C | 0.00378
C82A A111C A120U A145C C150U C169A U176G | 0.00233
C82A A111C A120U A145C U176G | 0.00266
C82A A111C A120U A145C U176A | 0.00599
C82A A111C A120U A145C U176C | 0.00818
C82A A111C A120U A145G C150U C169G U176A | 0.00597

Variant | reverse-splicing fitness
C82A A111C A120U A145G C150U C169G U176G | 0.00299
C82A A111C A120U A145G C150U C169G U176C | 0.00509
C82A A111C A120U C150U C169U U176A | 0.00738
C82A A111C A120U C150U C169U U176G | 0.0027
C82A A111C A120U C150U C169U U176C | 0.00534
C82A A111C A120U A145C C150U C169A | 0.00362
C82A A111C A120U A145C C150U C169U | 0.00379
C82A A111C A120U A145C C150U C169G | 0.00378
C82A A111C A120U C150A C169U U176A | 0.00806
C82A A111C A120U C150A C169U U176G | 0.00284
C82A A111C A120U C150A C169U U176C | 0.00458
C82A A111C A120U A145G C150U C169A U176G | 0.00324
C82A A111C A120U A145G C150U C169A U176C | 0.00432
C82A A111C A120U A145G C150U C169A U176A | 0.00915
C82A A111C A120U A145G C150G C169A U176C | 0.0094
C82A A111C A120U A145G C150G C169A U176A | 0.0122
C82A A111C A120U A145G C150G C169A U176G | 0.00541
C82A A111C A120U C169G U176A | 0.00421
C82A A111C A120U C169G U176C | 0.00315
C82A A111C A120U C169G U176G | 0.00234
C82A A111C A120U C150U U176A | 0.00771

Variant | reverse-splicing fitness
C82A A111C A120U C150U U176C | 0.0107
C82A A111C A120U C150U U176G | 0.00381
C82A A111C A120U A145C C150U C169G U176C | 0.00264
C82A A111C A120U A145C C150U C169G U176G | 0.00286
C82A A111C A120U A145C C150U C169G U176A | 0.00406
C82A A111C A120U A145C C150G C169G U176A | 0.00291
C82A A111C A120U A145C C150G C169G U176C | 0.00325
C82A A111C A120U A145C C150G C169G U176G | 0.00318
C82A A111C A120U A145U C150G U176A | 0.00392
C82A A111C A120U A145U C150G U176G | 0.00259
C82A A111C A120U A145U C150G U176C | 0.00511
C82A A111C A120U A145C C150G C169U | 0.005
C82A A111C A120U A145C C150G C169A | 0.00359
C82A A111C A120U A145C C150G C169G | 0.00355
C82A A111C A120U A145U C150A C169U | 0.00332
C82A A111C A120U A145U C150A C169G | 0.00349
C82A A111C A120U A145U C150A C169A | 0.00298
C82A A111C A145C C150U C169G U176A | 0.0253
C82A A111C A145C C150U C169G U176C | 0.0195
C82A A111C A145C C150U C169G U176G | 0.00845
C82A A111C A120U C169U U176C | 0.00626

Variant | reverse-splicing fitness
C82A A111C A120U C169U U176A | 0.00613
C82A A111C A120U C169U U176G | 0.00199
C82A A111C A120U A145C C169A U176G | 0.00214
C82A A111C A120U A145C C169A U176A | 0.00272
C82A A111C A120U A145C C169A U176C | 0.00295
C82A A111C A120U A145C C169G U176C | 0.00316
C82A A111C A120U A145C C169G U176A | 0.00292
C82A A111C A120U A145C C169G U176G | 0.00255
C82A A111C A120G U176G | 0.00584
C82A A111C A120G U176A | 0.0144
C82A A111C A120G U176C | 0.0255
C82A A111C A120U A145G C150A C169G U176G | 0.00261
C82A A111C A120U A145G C150A C169G U176A | 0.00687
C82A A111C A120U A145G C150A C169G U176C | 0.00514
C82A A111C A120U A145C C150G C169U U176C | 0.00347
C82A A111C A120U A145C C150G C169U U176G | 0.00285
C82A A111C A120U A145C C150G C169U U176A | 0.00398
C82A A111C A120U A145U C150U C169A U176C | 0.00305
C82A A111C A120U A145U C150U C169A U176A | 0.00334
C82A A111C A120U A145U C150U C169A U176G | 0.00295
C82A A111C A145C C150G | 0.0226
